Measured values: patent US20100048468A1 (Amgen, published 2010)
Numbering of substitutions follows the chain as printed. Non-standard residues stand in square brackets, D forms with d. Primed or numbered codes have the meaning given here. No end group written: not given here. mPEG40k‑branched = branched 40 kDa PEG (2 × 20 kDa) maleimide, attached to the Cys thiol; mPEG‑maleimide = 30 kD linear mPEG-maleimide attached to the Cys; mPEG 20 kDa = 20 kD mPEG-maleimide, thioether-linked to the Cys; branched PEG 40 kDa″ = 40 kDa branched poly(ethylene glycol); Aib′ = alpha aminobutyric acid (source's wording)

T1: mouse GLP-1 receptor (mouse, UniProt O35659 22-463)
T1 sequence (looked up): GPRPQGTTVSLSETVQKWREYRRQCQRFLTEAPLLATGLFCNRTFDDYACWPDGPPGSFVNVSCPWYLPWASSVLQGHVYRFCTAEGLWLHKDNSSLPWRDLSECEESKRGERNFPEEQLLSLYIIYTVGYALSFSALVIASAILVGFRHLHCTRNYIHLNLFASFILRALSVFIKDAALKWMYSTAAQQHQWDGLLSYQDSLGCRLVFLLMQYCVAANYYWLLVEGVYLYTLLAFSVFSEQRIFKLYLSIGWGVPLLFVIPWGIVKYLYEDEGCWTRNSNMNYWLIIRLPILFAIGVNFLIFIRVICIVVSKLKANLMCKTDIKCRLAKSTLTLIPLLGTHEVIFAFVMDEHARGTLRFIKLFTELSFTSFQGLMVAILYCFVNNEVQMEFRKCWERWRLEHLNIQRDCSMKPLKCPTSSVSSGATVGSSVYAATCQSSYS

B1: cgGLP-6 (SEQ ID NO: 10 + 8k PEG dumbbell) (peptide)
peptide: HGEGTFTSDVSSYLEGQAAKEFIAWLVKGRGCSG
modifications: not fully specified (residue 32); also: dimer: two peptides on one mal-PEG-mal, one at each end
B2: H[Aib]EGT FTSDVSSYLEGQAAKEFIAWLVKGRGCSGG (SEQ ID NO: 11) (peptide)
peptide: HXEGTFTSDVSSYLEGQAAKEFIAWLVKGRGCSGG
modifications: Aib (2-aminoisobutyric acid) at position 8 (GLP-1 numbering; residue 2 of the entry)
notes: Unconjugated peptide
B3: cgGLP-17 (SEQ ID NO: 11 + 20k PEG) (peptide)
peptide: B2 peptide
modifications: Aib at position 8 (residue 2 of the entry); 20k PEG on the cysteine at position 38 (GLP-1 numbering; residue 32 of the entry)
B4: H[bAla]EGT FTSDVSSYLEGQAAKEFIAWLVKGRGCSGG (SEQ ID NO: 12) (peptide)
peptide: B2 peptide
modifications: bAla (beta aminopropionic acid) at position 8 (GLP-1 numbering; residue 2 of the entry)
B5: [Gly8]GLP1(7-37) cyc[Glu15-Lys19] (SEQ ID NO: 36) (peptide)
peptide: HGEGTFTSDVSSYLEGQAKKEFIAWLVKGRG
modifications: side-chain cyclic lactam between Glu15 and Lys19 (counted on the peptide; GLP-1 positions 21 and 25); C-terminal amide
B6: [Gly8]cyclo[21-26] GLP1(7-37)-amide (SEQ ID NO: 42) (peptide)
peptide: B5 peptide with K19A
modifications: side-chain cyclic lactam between positions 21 (Glu) and 26 (Lys) (GLP-1 numbering; residues 15 and 20 of the entry); C-terminal amide
B7: [Gly8]GLP1(7-37) cyclo[Glu18-Lys22] (SEQ ID NO: 39) (peptide)
peptide: B5 peptide with A18E, K19A, F22K
modifications: side-chain cyclic lactam between Glu18 and Lys22 (counted on the peptide; GLP-1 positions 24 and 28); C-terminal amide

Each binder was assayed against T2, human GLP-1 receptor (human, UniProt P43220 24-463) (assay: cell-based or functional assay).

Row | Binder | EC50 human [nM]
1 | B1 | ~0.1
2 | HGEGTFTSDVSSYLEGQAAKEFIAWLVKGRGC(PEG 30 kDa)SG [cgGLP-8 (SEQ ID NO: 10 + 30k PEG)] | 0.4
3 | HGEGTFTSDVSSYLEGQAAKEFIAWLVKGRGC(PEG 30 kDa)SG [cgGLP-16 (SEQ ID NO: 10 + 30k PEG)] | 0.39
4 | B2 | 4
5 | B3 | 20
6 | B4 | > 100

These binders were tested against T1, mouse GLP-1 receptor (assay: cell-based or functional assay).

Row | Binder | EC50 mouse [nM]
7 | HGEGTFTSDVSSYLEGQAAKEFIAWLVKGRGC(branched PEG 40 kDa″)SG [cgGLP-5 (SEQ ID NO: 10 + 40k branched PEG)] | 1.5
8 | B1 | 0.8
9 | HGEGTFTSDVSSYLEGQAAKEFIAWLVKGRGC(PEG 30 kDa)SG [cgGLP-8 (SEQ ID NO: 10 + 30k PEG)] | 3
10 | HGEGTFTSDVSSYLEGQAAKEFIAWLVKGRGC(PEG 30 kDa)SG [cgGLP-16 (SEQ ID NO: 10 + 30k PEG)] | 4
11 | B2 | > 50
12 | B3 | > 100

Target: T2, human GLP-1 receptor
Experiment: cell-based or functional assay
Remark: another data set of the same source

Row | Binder | EC50 human [nM]
13 | HGEGTFTSDVSSYLE[Aib′]QAAKEFIAWLVKGRGC(mPEG‑maleimide)SG-NH2 (also: PEG on Cys32: 30k, but the text says branched 40 kDa) [cgGLP-28 (SEQ ID NO: 22 + 30k PEG)] | 0.1
14 | HGEGTFTSDVSSYLE[Aib′]QAAKEFIAWLVKGRGC(mPEG40k‑branched)SG-NH2 [cgGLP-29 (SEQ ID NO: 22 + 40k branched PEG)] | 0.15
15 | HGEGTFTSDVSSYLE[Aib′]QAAKEFIAWLVKGRGC(mPEG‑maleimide 20 kDa)SGG-NH2 [mgGLP-15 (SEQ ID NO: 24 + 20k PEG)] | 0.2
16 | H[Aib′]EGTFTSDVSSYLE[Aib′]QAAKEFIAWLVKGRGC(mPEG 20 kDa)SG [cgGLP-20 (SEQ ID NO: 25 + 20k mPEG)] | 0.099

Target: T1, mouse GLP-1 receptor
Experiment: cell-based or functional assay
Remark: another data set of the same source

Row | Binder | EC50 mouse [nM]
17 | HGEGTFTSDVSSYLE[Aib′]QAAKEFIAWLVKGRGC(mPEG‑maleimide)SG-NH2 (also: PEG on Cys32: 30k, but the text says branched 40 kDa) [cgGLP-28 (SEQ ID NO: 22 + 30k PEG)] | 0.8
18 | HGEGTFTSDVSSYLE[Aib′]QAAKEFIAWLVKGRGC(mPEG40k‑branched)SG-NH2 [cgGLP-29 (SEQ ID NO: 22 + 40k branched PEG)] | 1
19 | HGEGTFTSDVSSYLE[Aib′]QAAKEFIAWLVKGRGC(mPEG‑maleimide 20 kDa)SGG-NH2 [mgGLP-15 (SEQ ID NO: 24 + 20k PEG)] | 1.8
20 | H[Aib′]EGTFTSDVSSYLE[Aib′]QAAKEFIAWLVKGRGC(mPEG 20 kDa)SG [cgGLP-20 (SEQ ID NO: 25 + 20k mPEG)] | 1.5

Target: T2, human GLP-1 receptor
Experiment: cell-based or functional assay
Remark: another data set of the same source

Row | Binder | EC50 human [nM]
21 | B5 | 0.15
22 | B6 | 0.6
23 | B7 | 0.8

The binders below were run against T2, human GLP-1 receptor (assay: 125I-GLP-1 displacement, membranes of CHOK1 cells expressing human GLP-1 receptor).
Description: (§1) Membrane Preparation. […] Cells were sedimented at 1500 rpm for 10 minutes. The resulting pellets were homogenized in 15 mls of ice cold sucrose buffer (25 mM Tris-HCl, 0.32 M Sucrose, 0.25 g/L, sodium azide, pH 7.4) with a motorized, glass fitted, Teflon homogenizer. The homogenate was centrifuged at 48,000×g at 4° C. for 10 minutes, resuspended in 25 ml assay buffer (50 mM Tris-HCl, 5 mM MgCl₂, 10 mg/ml protease-free BSA, 0.1 mg/ml STI, and 0.1 mg/ml Pefabloc, pH 7.4) with a Tissue-Tearor (Biospec Products), then centrifuged again at 48,000×g for 10 minutes. The pellets were homogenized for a third time in 15 ml assay buffer using the Tissue-Tearor and again centrifuged at 48,000×g for 10 minutes. The resulting pellet was resuspended in assay buffer at a wet weight concentration of 4 mg/ml.
(§2) Ligand Binding Assay. Binding assays were performed in 96-well U-bottom plates. […] The reaction was terminated by rapid filtration through Unfilter-96 GF/C glass fiber filter plates (FilterMate 196 Packard Harvester, PerkinElmer, Shelton, Conn.) pre-soaked in 0.5% polyethylenimine, followed by three washes with 300 μl of cold 50 mM Tris-HCl, pH 7.4. Bound radioactivity was determined using a TopCount microplate scintillation and luminescence counter (Packard Instrument Company, PerkinElmer, Shelton, Conn.). Nonlinear regression analyses of resulting concentration curves were performed using GraphPad Prism (GraphPad Software, Inc., San Diego, Calif.).
The pegylated molecules were conjugated at the cysteine at position 38.

Row | Binder | IC50 [nM]
24 | B1 | 11
25 | B2 | 100
26 | B3 | 1000

Target: T2, human GLP-1 receptor
Experiment: as above
Remark: another data set of the same source
Description: as §1
as §2, with “Calif.). […]” for “Calif.).”

Row | Binder | IC50 [nM]
27 | HGEGTFTSDVSSYLE[Aib′]QAAKEFIAWLVKGRGC(mPEG‑maleimide)SG-NH2 (also: PEG on Cys32: 30k, but the text says branched 40 kDa) [cgGLP-28 (SEQ ID NO: 22 + 30k PEG)] | 71
28 | HGEGTFTSDVSSYLE[Aib′]QAAKEFIAWLVKGRGC(mPEG40k‑branched)SG-NH2 [cgGLP-29 (SEQ ID NO: 22 + 40k branched PEG)] | 800
29 | HGEGTFTSDVSSYLE[Aib′]QAAKEFIAWLVKGRGC(mPEG‑maleimide 20 kDa)SGG-NH2 [mgGLP-15 (SEQ ID NO: 24 + 20k PEG)] | 100
30 | H[Aib′]EGTFTSDVSSYLE[Aib′]QAAKEFIAWLVKGRGC(mPEG 20 kDa)SG [cgGLP-20 (SEQ ID NO: 25 + 20k mPEG)] | 30
